Measured values published in IntAct's records for PubMed 17986458.

Target: VHL, P40337-3

Row | Substance | effect of a mutation on the interaction
1 | Diacylglycerol kinase iota (Homo sapiens), O75912 P147A;P895A | disrupting interaction
2 | Diacylglycerol kinase iota (Homo sapiens), O75912 P895A | disrupting interaction
